In assay [1] the target is T1, feline IL-5 (Kingfisher Biotech; RP1152F) (feline, UniProt O77515 20-134).
T1 construct: Bought recombinant protein; also called fIL-5; fIL5
T1 sequence (looked up): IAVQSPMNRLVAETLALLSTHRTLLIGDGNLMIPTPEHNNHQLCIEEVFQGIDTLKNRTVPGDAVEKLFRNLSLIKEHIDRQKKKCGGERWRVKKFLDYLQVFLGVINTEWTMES
Kind of assay: SPR Biacore T200, IgG captured on goat anti-feline IgG CM5 chip, feline IL-5 as analyte. An excerpt: (§1) MABS, 11:239-264). These post-translational modifications can be particularly problematic when they reside in the CDRs. […] DNA constructs were synthesized (GeneArt) encoding the MtxB clone with substitutions to eliminate the potential sequence liabilities. For the NG site in LCDR3, the Asn (position 106) was substituted with either a Gln or a Ser and for the Met in HCDR3 (position 115), a Len was substituted. The DNA constructs with the light chain variants were fused to the feline kappa constant domain. These DNA constructs were subcloned into the pcDNA3.4 expression vector (ThermoFisher) and expressed with the ExpiCHO system (ThermoFisher). The antibodies were purified with mAbSelect SuRe chromatography (Cytiva) and buffer exchanged into 20 mM sodium acetate, 136 mM sodium chloride, pH 5.5. The variants were tested in an SPR experiment using a Biacore T200 instrument to measure their affinity to feline IL-5 (Kingfisher Biotech; RP1152F). Goat anti-feline IgG was immobilized onto a Series S CM5 sensor chip (Cytiva) and the original MtxB clone and the variants containing the amino acid substitutions were captured on the chip at 5 μg/ml.
DNA constructs (GeneArt) were generated for the two heavy chain variants with the feline IgG1a constant domain along with the three light chain variants with the feline kappa constant domain were all subcloned into pcDNA 3.4 (ThermnoFisher Scientific). Each combination of the heavy and light chain variants was transfected into ExpiCHO cells to generate conditioned medium. The feline IgGs were purified using MabSelect SuRe chromatography and buffer exchanged into 20 mM sodium acetate, 136 mM sodium chloride, pH 5.5. The binding affinities of the different feline IgGs to feline IL-5 was determined using the same SPR method described in the removing potential sequence liabilities in LCDR3 and HCDR3 section and are shown below in Table 7.

Assay [2] addresses T1, feline IL-5 (Kingfisher Biotech; …). Kind of assay: SPR Biacore T200, IgG captured on goat anti-feline IgG-Fc CM5 chip, feline IL-5 as analyte. How it is done:
(§2) MtxA antibody and MtxB antibody had the highest affinity to feline IL-5 as determined by surface plasmon resonance (SPR) using a Biacore T200 instrument. Goat anti-feline IgG-Fc fragment specific (Jackson ImmunoResearch; 102-005-008) at 30 μg/ml in 10 mM acetate, pH 5.0 was immobilized onto CM5 sensor chip (Cytiva; 29104988) with NHS coupling at 10 μL/min for 420 seconds and then other sites blocked with ethanolamine at 10 μL/min for 420 seconds. The anti-feline IL-5 antibodies were captured at 2 μg/ml onto the anti-feline IgG CM5 chip for 60 sec at 10 μl/min. […] The kinetics of the feline IL-5 binding to the antibodies is shown below in FIG. 2. In addition, an IL-5 receptor blocking assay was completed by capturing biotinylated receptors on a Series S CAP chip and Biotin CAPture reagent (Cytiva). For this assay, a fusion protein was generated containing the extracellular domain of feline IL-5Rα (XP_011278466.1) linked to a 2X-Gly-Gly-Gly-Ser (SEQ ID NO:89) linker-linked to the human IgG1 Fc linked to the AviTag sequence (FIG. 1B, SEQ ID NO:2) and subcloned into the pcDNA3.4 mammalian expression vector. This construct was expressed in CHO-S cells and purified with protein A chromatography followed by a polishing chromatography step with SEC. The purified recombinant protein was biotinylated in vitro using the BirA biotin ligase. Antibodies were titrated in running buffer (1×PBSP+, Cytiva) and pre-incubated with 50 nM IL-5 (Kingfisher) at multiple molar ratios. Binding was assessed by injecting these samples over the captured receptor for 180 s. The Rmax was used to calculate the inhibition percent by dividing the Rmax of the pre-mixed samples by an average of the IL-5-only Rmax samples that were collected throughout the assay. The ability of each antibody to block binding of feline IL5 was measured (Table 2).
In general terms: Surface plasmon resonance follows binding to a sensor surface in real time, without labels.

For assay [3] the target is unchanged. Kind of assay: Biacore, antibody pre-incubated with 50 nM IL-5 at 1:1, over captured biotinylated IL-5Rα-Fc-AviTag (competitor m3). The protocol:
as §2

For assay [4] the target is unchanged. Kind of assay: SPR Biacore T200, IgG captured on goat anti-feline IgG CM5 chip, feline IL-5 as analyte.
Text: as §1, with “Asparagine deamidation for asparagine residues and oxidation at methionine residues can negatively impact the potency and the stability of an antibody (Xu et al., 2019. MABS,” for “MABS,”
The source holds these as a separate data set.

Assay [5] has the same target. In words: ELISA on plate-coated feline IL-5, Fab at 65 ng/ml dimerized with goat anti-feline IgG F(ab')2, anti-goat-HRP detection. A general note: An ELISA detects its analyte on a solid surface through an enzyme-linked reagent.
For assay [6] the target is unchanged. Kind of assay: ELISA, Fab culture supernatant on plate-coated feline IL-5, anti-feline Fab'2-HRP detection. An excerpt: Fragments containing the pre-selected CDR pools from these libraries were randomly paired by overlap PCR to create a new library incorporating mutations throughout all targeted CDRs. The phage propagated following round 4 of selection were used for PCR amplication of LCDR2, LCDR3 and HCDR3. The PCR-amplified fragment containing the light chain and the heavy chain were ligated into a phagemid vector and transformed into E. coli. The number of transformants was approximately 2E+10. Library plasmid DNA was purified using a midi-prep purification method. Ten pg of the library plasmid DNA was transformed into E. coli for growth and propagation of the Fab phage. After overnight phage production, phage was precipitated from the culture supernatant and resuspended in blocking buffer (1% BSA/PBS). The phage were treated at 58° C. for 10 minutes to remove unstable clones prior to the selections. The input phage was incubated for 30 minutes in a blocked ELISA plate coated with feline IL-5. The ELISA plate was washed with PBS, pH 7.4 followed by acid elution of the bound phage. The output phage was then used to infect E. coli for propagation for the next round of selection. For rounds 1, 2, 3 and 4, the ELISA plates were coated with 10 μg/ml, 8 μg/ml, 5 μg/ml and 1 μg/ml, respectively. The number of washes after each round were 3, 5, 10 and 10 for rounds 1, 2, 3 and 4, respectively. Ninety-three clones from the round 4 output were grown overnight for Fab production and tested for binding to feline IL-5 in an ELISA format. For this assay, supernatants from the overnight cultures were incubated in Immulon 4 HBX high-binding plate that was coated with 10 μg/ml feline IL-5 (Kingfisher Biotech; Cat #RP1152F) and blocked with 1% bovine serum albumin in phosphate buffered saline (PBS), pH 7.4. The controls added included the MtxB clone and clone 1H3-C6 which was the top affinity clone from the first stage A1 step. The Fab binding to the feline IL-5 was detected with anti-feline Fab′₂-HRP conjugate.
The results are shown in Table 8A which compares relative Fab binding affinity to feline IL-5 by Fabs disclosed herein. IL-5 binding was detected with anti-feline Fab′₂-HRP conjugate. Differences in CDR amino acids compared to the MtxB are underlined. The data in the last column are absorbance following addition of substrate to detect the HRP conjugate.

The target is the same in assay [7]. Kind of assay: high-throughput SPR (Carterra LSA), antibody coupled to HC-30M chip, feline IL-5 as analyte. How it is done: The chip surface was first activated by flowing a freshly prepared 1:1:1 activation mix of 100 mM MES pH 5.5, 100 mM S-NHS, and 400 mM EDC for seven minutes. Antibodies diluted to 10 μg/mL in 10 mM sodium acetate, pH 4.25 buffer, 0.01% Tween were coupled to the chip surface for 10 min using the instrument 96 Multi Flow Channel printhead. The chip surface was quenched by flowing 1 M Ethanolamine for seven minutes, followed by two wash steps of 15 seconds each in 25 mM MES pH 5.5 buffer. Feline IL-5 (Kingfisher Biotech; RP1152F) was used at the following concentrations: 1000, 333.3, 111.1, 37.0, 12.3, 4.1, 1.4, 0.45, and 0.15 nM.

As a reminder, the Kd is the equilibrium constant for the complex coming apart. One may read the koff as a measure of how fast the partners let go of each other. By kon is commonly meant a measure of how fast the partners come together.

B1: MtxA antibody (felinized clone 154) (antibody, IgG1a, V domains shown)
VH: DVQLVESGGDLVKPGGSLRLTCVGSGFTFSNYAMSWVRQAPGEGLQWVATIGSGGHYTYHPDSVKGRFTISRDNAKNTLYLQMNSLQTEDTASYYCTRETDGYDGMDYWGQGTLVTVSS
VL: EIQMTQSPSSLSASVGDRVTITCRASQSISDYLYWYQQKPGKAPKLLIYYASQSISGVPSRFSGSGSGTDFTLTISSLQPEDFATYYCQNGHSFPYTFGPGTKLEIK
notes: Feline IgG1a (GenBank BAA32229.1) / feline kappa (GenBank ATI97438.1); also called Matrix clone A
For the molecule B1, in assay [1], the Kd was 0.273 nM, the dissociation rate constant (koff) worked out at 6.65e-05 s⁻¹ and the on-rate constant (kon) came to 242000 M⁻¹ s⁻¹. In addition, in assay [2], the Kd came out at 0.178 nM, the dissociation rate constant (koff) worked out at 1.49e-05 s⁻¹ and the kon came to 87100 M⁻¹ s⁻¹. In assay [3], the “% blocking 1:1” value stood at 92.5%.

B2: MtxB antibody (felinized clone 154) (antibody, IgG1a, V domains shown)
VH: DVQLVESGGDLVKPGGSLRLTCVGSGFTFSNYAMSWVRQAPGEGLQWVATIGSGGHYTYHPDSVKGRFTISRDNAKNTLYLQMNSLQTEDTASYYCTRETDGYDGMDYWGQGTLVTVSS
VL: DIVMTQTPLSLSVTPGEPASISCRASQSISDYLYWYLQKPGQSPRRLIYYASQSISGVPDRFSGSGSGTDFTLRISRVEADDVGVYYCQNGHSFPYTFGPGTKLEIK
notes: Feline IgG1a (GenBank BAA32229.1) / feline kappa (GenBank ATI97438.1); also called MatrixB; Matrix B
In assay [4], B2 gave a Kd of 5.9 nM, an off-rate (koff) of 0.00053 s⁻¹ and a kon of 90000 M⁻¹ s⁻¹. In assay [2], this molecule returned a Kd of 5.02 nM, a koff of 0.000548 s⁻¹ and an on-rate constant (kon) of 141000 M⁻¹ s⁻¹. Further, in assay [3], the “% blocking 1:1” value is 74.2%.

B3: MtxB Fab (Fab, V domains shown)
VH: DVQLVESGGDLVKPGGSLRLTCVGSGFTFSNYAMSWVRQAPGEGLQWVATIGSGGHYTYHPDSVKGRFTISRDNAKNTLYLQMNSLQTEDTASYYCTRETDGYDGMDYWGQGTLVTVSS
VL: DIVMTQTPLSLSVTPGEPASISCRASQSISDYLYWYLQKPGQSPRRLIYYASQSISGVPDRFSGSGSGTDFTLRISRVEADDVGVYYCQNGHSFPYTFGPGTKLEIK
notes: Fab made in E. coli from the phagemid: heavy chain variable domain, CH1 and partial hinge; light chain of MtxB; also called Matrix B; original MtxB Fab
B3: the “Normalized fIL-5 ELISA value, 65 ng/ml Fab” value in assay [5] came to 0.165. Moreover, in assay [6], the “fIL5 Fab (ELISA absorbance)” value worked out at 0.054 absorbance.

B4: Chimeric 154 (clone 154 variable domains with feline IgG1a and feline kappa constant domains) (antibody, V domains shown)
VH: EVQLVESGGDLVKPGGSLKLSCAASGFTFSNYAMSWVRQTPDKRLEWVATIGSGGHYTYHPDSVKGRFSISRDNAKNTLSLQMSSLKSEDTAMYYCTRETDGYDGMDYWGQGTSVTVSS
VL: DIVMTQSPATLSVTPGDRVSLSCRASQSISDYLYWYQQKSHESPRLLIKYASQSISGIPARFSGSGSGSDFTLSINSVEPEDVGVYYCQNGHSFPYTFGGGTKLEIK
notes: also called 154 chimera
Take B4: in assay [1], the Kd stood at 0.0914 nM, the koff came to 3.38e-05 s⁻¹ and the kon amounted to 369000 M⁻¹ s⁻¹. In assay [2], this molecule registered a Kd of 0.129 nM, a dissociation rate constant (koff) of 3.56e-05 s⁻¹ and an on-rate constant (kon) of 276000 M⁻¹ s⁻¹. Moreover, the “% blocking 1:1” value in assay [3] was 98.2%.

B5: murine anti-feline IL-5 antibody clone 154 (antibody, V domains shown)
VH: EVQLVESGGDLVKPGGSLKLSCAASGFTFSNYAMSWVRQTPDKRLEWVATIGSGGHYTYHPDSVKGRFSISRDNAKNTLSLQMSSLKSEDTAMYYCTRETDGYDGMDYWGQGTSVTVSS
VL: DIVMTQSPATLSVTPGDRVSLSCRASQSISDYLYWYQQKSHESPRLLIKYASQSISGIPARFSGSGSGSDFTLSINSVEPEDVGVYYCQNGHSFPYTFGGGTKLEIK
notes: also called murine antibody 154
Molecule B5 displayed a dissociation constant (Kd) in assay [7] of 0.141 nM.

For the origin of these results see US20250051435A1 (INVETX, published 2025).
